Experiment [1] has as its target T1, H-2K (Mus musculus, UniProt P01902).
T1 construct: K^d molecules isolated from the spleen of BALB/c mice were then purified and iodinated; from tissue; host or cells: spleen of BALB/c mice
T1 sequence (P01902 22-368): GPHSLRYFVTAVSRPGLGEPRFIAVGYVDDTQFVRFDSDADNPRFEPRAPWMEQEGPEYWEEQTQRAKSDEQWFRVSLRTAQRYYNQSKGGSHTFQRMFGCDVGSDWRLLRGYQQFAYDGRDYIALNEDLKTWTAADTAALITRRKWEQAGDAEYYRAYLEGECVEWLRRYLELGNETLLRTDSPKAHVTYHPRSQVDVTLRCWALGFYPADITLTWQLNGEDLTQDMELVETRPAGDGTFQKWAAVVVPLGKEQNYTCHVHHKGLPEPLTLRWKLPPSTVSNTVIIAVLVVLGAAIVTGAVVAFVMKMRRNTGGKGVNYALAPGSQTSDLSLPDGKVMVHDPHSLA
T1 sequence (P01887 21-119 partner): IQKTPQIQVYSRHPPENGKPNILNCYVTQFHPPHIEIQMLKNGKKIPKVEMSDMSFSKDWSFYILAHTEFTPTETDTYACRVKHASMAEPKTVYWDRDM
In words: Direct peptide binding assay: 125I-labeled conventional Kd from BALB/c spleen. On the procedure:
Direct Peptide Binding Assay. Wells of microtiter plates are pretreated with 100 μl 2.5% glutaraldehyde in distilled water for 2 h at 20° C., washed with distilled water, and coated for 16 h at 4° C. with 100 μl of peptide diluted at 5 μg/ml either in carbonate-bicarbonate buffer, pH 9.6, or in PBS, pH 7.4 or pH 5.0. Remaining free sites are blocked by incubation for 2 h at 20° C. with BSA diluted 1% in PBS containing 0.05% Tween 20 (Tw) and 0.02% sodium azoture. After washing, purified ^125 I-HLA molecules (100 μl containing 1.5×10^5 cpm, 10^-9 M) diluted in PBS containing 1% BSA, 0.05% Tw, 0.02% sodium azoture, 1 mM PMSF, and 10 μg/ml trypsin inhibitor are added and incubated for 20 h at 20° C. After extensive washing, the radioactivity of each well is counted.
Peptides used in this study are described in Choppin et al. (Choppin, J., Martinon, F., Gomard, E., Bahraoui, E., Connan, F., Bouillot, F., and Levy, J. -P, J. Exp. Med., 1990. 172:889 and references therein), except for HLA-Cw3 and HLA-A24 described in Maryanski, J. Ll, Pala, P., Cerottini, J. -C, and Corradin, G., J. Exp. Med. 1988. 167:1391. Binding assays were performed as described in Choppin, J., Martinon, F., Gomard, E., Bahraoui, E., Connan, F., Bouillot, F., and Levy, J. -P, J. Exp. Med., 1990. 172:889. […]

For experiment [2], the target named is T2, SC-K^d -15 (Mus musculus, UniProt P01887+P01902).
T2 construct: connecting residue 276 of K^d heavy chain to the first residue of β2 -microglobulin; mature mouse beta2-microglobulin, fused after the spacer (same polypeptide); expressed in transfected cells; host or cells: monkey COS-1 cells, transient
T2 sequence (P01902+P01887 with tags, fused parts or gaps): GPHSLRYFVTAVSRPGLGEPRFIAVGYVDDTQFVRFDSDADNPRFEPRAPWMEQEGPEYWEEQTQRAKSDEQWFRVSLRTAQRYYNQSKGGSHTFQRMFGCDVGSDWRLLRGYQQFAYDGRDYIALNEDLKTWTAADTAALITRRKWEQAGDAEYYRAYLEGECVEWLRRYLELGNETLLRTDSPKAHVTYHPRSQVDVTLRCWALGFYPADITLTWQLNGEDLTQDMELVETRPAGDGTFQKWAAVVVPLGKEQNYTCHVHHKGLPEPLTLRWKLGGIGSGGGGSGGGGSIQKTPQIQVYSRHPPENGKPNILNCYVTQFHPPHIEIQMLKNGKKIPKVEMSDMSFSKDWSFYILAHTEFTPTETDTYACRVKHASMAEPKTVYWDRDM
Briefly: Direct peptide binding assay: 35S-labeled SC-Kd-15 on plastic-coated peptides. The conditions noted are these: for ^35 S-labeled SC-Kd bound to coated peptide: duplicates; for binding of peptide to SC-K^d -15 (in words): direct assay. How it is done: (§1) Direct Peptide Binding Assay. Wells of microtiter plates are pretreated with 100 μl 2.5% glutaraldehyde in distilled water for 2 h at 20° C., washed with distilled water, […] buffer, pH 9.6, or in PBS, pH 7.4 or pH 5.0. Remaining free sites are blocked by incubation for 2 h at 20° C. with BSA diluted 1% in PBS containing 0.05% Tween 20 (Tw) and 0.02% sodium azoture. […] After extensive washing, the radioactivity of each well is counted.
COS-1 cells (usually 10^7 cells) were transfected with pSC-K^d -15 DNA, labeled and lysed as above. […] After the final wash in PBS, SC-K^d -15 was eluted from the matrix with an equal volume of 3 M thiocyanate for 10 min on ice. After an overnight dialysis in PBS containing 0.1% NP40, 0.05% Tween and 0.2% BSA, SC-K^d -15 was used in direct binding test as below. Its purity was assessed by SDS-PAGE.
K^d molecules isolated from the spleen of BALB/c mice were then purified and iodinated.

Experiment [3] deals with HLA-DR3 (Homo sapiens, UniProt P01903+P01911). In words: Direct peptide binding assay: 125I-labeled HLA-DR3 (positive control). The conditions noted are these: for binding of peptide to HLA-DR3 positive control (in words): direct assay. On the procedure: as §1
Experiment [4] concerns the target HLA-DRw13 (Homo sapiens, UniProt P01903+P01911). In words: Direct peptide binding assay: 125I-labeled HLA-DRw13 (positive control). The conditions noted are these: for binding of peptide to DRw13 positive control (in words): direct assay, printed DR213. On the procedure:
Direct Peptide Binding Assay. Wells of microtiter plates are pretreated with 100 μl 2.5% glutaraldehyde in distilled water for 2 h at 20° C., washed with distilled water, and coated for 16 h at 4° C. with 100 μl of peptide diluted at 5 μg/ml either in carbonate-bicarbonate buffer, pH 9.6, or in PBS, pH 7.4 or pH 5.0. Remaining free sites are blocked by incubation for 2 h at 20° C. with BSA diluted 1% in PBS containing 0.05% Tween 20 (Tw) and 0.02% sodium azoture. […] After extensive washing, the radioactivity of each well is counted.

Experiment [5] concerns the target T2, SC-K^d -15. Briefly: Competition experiment, env 312-327 bound to plastic, 35S-labeled SC-Kd. Format: binding. The conditions noted are these: Table (B) shows it for SC-Kd and H-2K.

Values joined by “and” are separate entries in the source; they are usually repeats but may differ in a detail not shown here. Equal values may be shown once.

Sequence of HLA-DR3 (P01903 26-254): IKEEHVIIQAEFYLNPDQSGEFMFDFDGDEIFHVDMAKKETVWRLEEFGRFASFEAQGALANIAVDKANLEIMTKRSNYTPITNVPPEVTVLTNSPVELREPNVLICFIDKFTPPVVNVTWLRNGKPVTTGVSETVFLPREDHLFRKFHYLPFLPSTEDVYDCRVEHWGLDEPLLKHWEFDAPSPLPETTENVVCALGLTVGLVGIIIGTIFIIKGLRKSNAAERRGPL
Sequence of HLA-DR3 (P01911 30-266): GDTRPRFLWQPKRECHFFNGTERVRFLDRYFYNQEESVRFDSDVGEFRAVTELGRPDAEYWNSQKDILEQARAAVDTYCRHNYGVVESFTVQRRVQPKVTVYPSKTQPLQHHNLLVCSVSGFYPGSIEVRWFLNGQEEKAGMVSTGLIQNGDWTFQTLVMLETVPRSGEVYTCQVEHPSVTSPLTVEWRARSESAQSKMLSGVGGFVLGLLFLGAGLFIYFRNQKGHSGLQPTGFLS
Sequence of HLA-DRw13 (P01903 26-254): as the sequence (P01903 26-254) above
Sequence of HLA-DRw13 (P01911 30-266): as the sequence (P01911 30-266) above

In the case of “IRIQRGPGRAFVTIGK [env 312-327, HIV 1 Env peptide, residues 312-327]”, the “binding of peptide to conventional K^d (in words)” value in experiment [1] is on record as “found to bind”. In addition, the “^35 S-labeled SC-Kd bound to coated peptide” value in experiment [2] (Table 10 (A), peptide 30 μg/ml, pH 9.6, input 10,000 cpm) amounted to 750 cpm; in experiment [2] (Table (B), peptide 5 μg/ml, pH 9.6, input 6000 cpm, no coated peptide 228/223), 390 cpm. Moreover, in experiment [2], the “binding of peptide to SC-K^d -15 (in words)” value is “significant binding”. For the same sequence, the “binding of peptide to HLA-DR3 positive control (in words)” value in experiment [3] is “significant binding”. For the same sequence, in experiment [4], the “binding of peptide to DRw13 positive control (in words)” value is recorded as “significant binding”.

Consider LFIHFRIGCRHSR [vpr 68-80], for which the “^35 S-labeled SC-Kd bound to coated peptide” value in experiment [2] (Table 10 (A), peptide 10 μg/ml, pH 5, input 10,000 cpm) was 710 cpm and 621 cpm. Besides, the “binding of peptide to SC-K^d -15 (in words)” value in experiment [2] was “significant binding”. The “^125 I-labeled HLA-DR3 bound to coated peptide” value in experiment [3] (Table 10 (A), peptide 10 μg/ml, pH 5, input 200000 cpm, first value of cell, duplicates) is 18582 cpm and 18245 cpm. The “binding of peptide to HLA-DR3 positive control (in words)” value in experiment [3] is “significant binding”. Besides, in experiment [5], the “competition with plastic-bound env 312-327 peptide (in words)” value is listed as “competed efficiently”. The “^125 I-labeled HLA-DRw13 bound to coated peptide” value in experiment [4] (Table 10 (A), peptide 10 μg/ml, pH 5, input 200000 cpm, second value of cell, duplicates) is 21838 cpm and 20593 cpm. Also, the “binding of peptide to DRw13 positive control (in words)” value in experiment [4] is reported as “significant binding”.

Source of the values: US6153408A, “Altered major histocompatibility complex (MHC) determinant and methods of using the determinant” (Institut Pasteur and Institut National de la Sante et de la …, priority 1995, dated 2000).
